Sequences and labels used below:
T1: PUF4 RNA-binding domain (Saccharomyces cerevisiae, UniProt P25339 537-888)
T1 sequence: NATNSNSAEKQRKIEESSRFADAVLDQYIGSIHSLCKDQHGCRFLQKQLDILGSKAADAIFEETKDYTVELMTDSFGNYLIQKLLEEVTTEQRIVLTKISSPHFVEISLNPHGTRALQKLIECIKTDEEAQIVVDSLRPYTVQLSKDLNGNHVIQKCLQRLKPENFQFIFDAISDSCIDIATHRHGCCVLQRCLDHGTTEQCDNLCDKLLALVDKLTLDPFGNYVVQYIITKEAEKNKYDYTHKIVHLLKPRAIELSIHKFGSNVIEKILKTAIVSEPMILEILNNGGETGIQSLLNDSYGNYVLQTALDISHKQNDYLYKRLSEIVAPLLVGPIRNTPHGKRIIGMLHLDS

B1: Ic_S1_P3E.1_K3.1_C3.1_H3.1_A3.1_[T5C]_[A6G]_F3.1_T3.1 (ssRNA)
RNA: UCUCUUUGUACGUAUCUCUU
B2: Ic_S1_P3E.1_K3.1_C3.1_H3.1_A3.1_[T5A]_[A6C]_F3.1_T3.1 (ssRNA)
RNA: UCUCUUUGUAACUAUCUCUU
B3: Ic_S2_P4E.1_K4.1_C4.1_H4.1_A4.1_[T5C]_[T7C]_F4.1_[T8A]_T4.1 (ssRNA)
RNA: UUUGAUUAAUAUGAUAUCGUUCUUUCUUGUACACAAUUCUUUCUCGAUAUCAUAUUAAUCUUU
B4: Ic_S2_P4E.1_K4.1_C4.1_H4.1_A4.1_[T5C]_F4.1_[T8C]_[A9C]_T4.1 (ssRNA)
RNA: B3 RNA with C34U, A35C, A36C
B5: Ic_S2_P4E.1_K4.1_C4.1_H4.1_A4.1_[T5A]_[A6T]_[T7A]_F4.1_[T8A]_[A9C]_T4.1 (ssRNA)
RNA: B3 RNA with C32A, A33U, C34A, A36C
B6: Ic_S2_P4E.1_K4.1_C4.1_H4.1_A4.1_[T5A]_[A6T]_[T7C]_F4.1_[T8C]_[A9G]_T4.1 (ssRNA)
RNA: B3 RNA with C32A, A33U, A35C, A36G
B7: Ic_S2_P4E.1_K4.1_C4.1_H4.1_A4.1_[T5C]_F4.1_[T8A]_[A9C]_T4.1 (ssRNA)
RNA: B3 RNA with C34U, A36C
B8: Ic_S2_P4E.1_K4.1_C4.1_H4.1_A4.1_[T5A]_[A6T]_[T7C]_F4.1_[T8G]_[A9T]_T4.1 (ssRNA)
RNA: B3 RNA with C32A, A33U, A35G, A36U
B9: Ic_S2_P4E.1_K4.1_C4.1_H4.1_A4.1_[T5A]_[A6T]_[T7A]_F4.1_[T8A]_T4.1 (ssRNA)
RNA: B3 RNA with C32A, A33U, C34A
B10: Ic_S2_P4E.1_K4.1_C4.1_H4.1_A4.1_[T5A]_[A6C]_[T7C]_F4.1_[T8C]_[A9G]_T4.1 (ssRNA)
RNA: B3 RNA with C32A, A33C, A35C, A36G
B11: Ic_S2_P4E.1_K4.1_C4.1_H4.1_A4.1_[T5A]_[A6C]_[T7G]_F4.1_[T8C]_T4.1 (ssRNA)
RNA: B3 RNA with C32A, A33C, C34G, A35C
B12: Ic_S2_P4E.1_K4.1_C4.1_H4.1_A4.1_[T5A]_[A6T]_[T7G]_F4.1_T4.1 (ssRNA)
RNA: B3 RNA with C32A, A33U, C34G, A35U
B13: Ic_S2_P4E.1_K4.1_C4.1_H4.1_A4.1_[T5A]_[A6T]_[T7C]_F4.1_[A9T]_T4.1 (ssRNA)
RNA: B3 RNA with C32A, A33U, A35U, A36U
B14: Ic_S2_P4E.1_K4.1_C4.1_H4.1_A4.1_[T5A]_[A6C]_F4.1_[T8G]_[A9T]_T4.1 (ssRNA)
RNA: B3 RNA with C32A, A33C, C34U, A35G, A36U
B15: Ic_S2_P4E.1_K4.1_C4.1_H4.1_A4.1_[T5A]_[A6T]_[T7G]_F4.1_[T8C]_[A9T]_T4.1 (ssRNA)
RNA: B3 RNA with C32A, A33U, C34G, A35C, A36U
B16: Ic_S2_P4E.1_K4.1_C4.1_H4.1_A4.1_[T5A]_[A6T]_[T7C]_F4.1_[T8A]_[A9G]_T4.1 (ssRNA)
RNA: B3 RNA with C32A, A33U, A36G
B17: Ic_S2_P4E.1_K4.1_C4.1_H4.1_A4.1_[T5A]_[A6C]_[T7A]_F4.1_[A9C]_T4.1 (ssRNA)
RNA: B3 RNA with C32A, A33C, C34A, A35U, A36C
B18: Ic_S2_P4E.1_K4.1_C4.1_H4.1_A4.1_[T5C]_[T7C]_F4.1_[A9T]_T4.1 (ssRNA)
RNA: B3 RNA with A35U, A36U
B19: Ic_S2_P4E.1_K4.1_C4.1_H4.1_A4.1_[T5A]_[A6T]_[T7A]_F4.1_[T8C]_T4.1 (ssRNA)
RNA: B3 RNA with C32A, A33U, C34A, A35C
B20: Ic_S2_P4E.1_K4.1_C4.1_H4.1_A4.1_[T5A]_[A6C]_F4.1_[T8G]_[A9G]_T4.1 (ssRNA)
RNA: B3 RNA with C32A, A33C, C34U, A35G, A36G
B21: Ic_S2_P4E.1_K4.1_C4.1_H4.1_A4.1_[T5A]_[A6T]_[T7C]_F4.1_[T8A]_[A9T]_T4.1 (ssRNA)
RNA: B3 RNA with C32A, A33U, A36U
B22: Ic_S2_P4E.1_K4.1_C4.1_H4.1_A4.1_[T5A]_[A6T]_[T7C]_F4.1_[A9G]_T4.1 (ssRNA)
RNA: B3 RNA with C32A, A33U, A35U, A36G
B23: Ic_S2_P4E.1_K4.1_C4.1_H4.1_A4.1_[T5C]_[T7A]_F4.1_[T8C]_[A9C]_T4.1 (ssRNA)
RNA: B3 RNA with C34A, A35C, A36C
B24: Ic_S2_P4E.1_K4.1_C4.1_H4.1_A4.1_[T5A]_[A6T]_[T7G]_F4.1_[T8C]_[A9C]_T4.1 (ssRNA)
RNA: B3 RNA with C32A, A33U, C34G, A35C, A36C
B25: Ic_S2_P4E.1_K4.1_C4.1_H4.1_A4.1_[T5C]_[T7A]_F4.1_[T8C]_[A9G]_T4.1 (ssRNA)
RNA: B3 RNA with C34A, A35C, A36G
B26: Ic_S2_P4E.1_K4.1_C4.1_H4.1_A4.1_[T5A]_[A6C]_F4.1_[T8C]_T4.1 (ssRNA)
RNA: B3 RNA with C32A, A33C, C34U, A35C

Numbering of substitutions follows the chain as printed. Numbers in names are those of the source.

In this series the target is T1, PUF4 RNA-binding domain. The series can be described thus: Mg; RNA-MaP; 20 mM Na-HEPES pH 7.4, 30 mM KOAc, 0.75 mM MgCl2, 0.1% Tween-20, 5% glycerol, 0.1 mg/mL BSA, 2 mM DTT; 25 C; 0.0125-409.6 nM protein. The note with it: tags: N-His6-TEV cleaved; C-SNAP kept, Cy3B-labelled; label: tethered on chip by stalled RNA polymerase.
By Kd is commonly meant a measure of binding affinity in units of concentration. As for B1, the equilibrium dissociation constant (Kd) was 149 nM. In the case of B2 it was 271 nM. As for B3, the Kd came to 13.8 nM. B4 had a Kd of 12.3 nM. In the case of B5 it was 470 nM.

For the molecule B6, the dissociation constant (Kd) was determined as 648 nM.

As to B7, binding was put at a Kd of 4.76 nM. Then B8, with 335 nM; and B9, with 56 nM. B10 returned a dissociation constant Kd of 742 nM. In the case of B11 it was 747 nM; in that of B12, 8.85 nM. In turn, B13 had a Kd of 22 nM. Turning to B14, the Kd was found to be 61.3 nM. In the case of B15 it was 518 nM.

In turn, B16 yielded a Kd of 1430 nM. B17 displayed a dissociation constant Kd of 16 nM. Then B18, with 2.92 nM; and B19, with 558 nM. The molecule B20 had an equilibrium dissociation constant (Kd) of 701 nM. Then B21, with 128 nM; and B22, with 24.7 nM. In the case of B23 it was 87.7 nM; in that of B24, 1040 nM; in that of B25, 55.1 nM. On to B26, for which the dissociation constant Kd was 324 nM.

The values are drawn from PMC9352680, “A comprehensive thermodynamic model for RNA binding by the Saccharomyces cerevisiae Pumilio protein PUF4”.
